# In article doi:10.1101/2025.09.26.678709, “MRAP2 potentiates GPCR signaling by conserved mechanisms that are disrupted by obesity-associated genetic variants” (bioRxiv, 2025):
# T1: HA-Halo-MRAP2 (human, UniProt Q96G30 1-205, CA-Sulfo646 dye on the Halo tag)
# T1 construct: melanocortin receptor-2 accessory protein-2 (MRAP2), human; N-terminal signal peptide from rat mGluR2 in the construct; also called melanocortin receptor-2 accessory protein-2; source: HEK293, transfected, in lysate (LMNG-CHS); not shown: HA, N-terminal, kept; Halo, N-terminal, kept
# T1 sequence (looked up): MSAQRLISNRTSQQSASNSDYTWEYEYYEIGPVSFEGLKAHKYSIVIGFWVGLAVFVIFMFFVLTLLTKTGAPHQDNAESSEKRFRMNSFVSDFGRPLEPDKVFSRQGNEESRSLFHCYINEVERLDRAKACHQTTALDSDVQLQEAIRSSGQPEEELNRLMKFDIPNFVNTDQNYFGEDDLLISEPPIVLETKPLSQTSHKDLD
# Legend:
# Conditions in all cases: partners not purified
# HA-Halo-MRAP2 = target: T1, HA-Halo-MRAP2; test: single-molecule pull-down (SiMPull) with photobleaching step counting; two-color: HA-Halo protein (CA-Sulfo646) and FLAG-CLIP protein (BC-DY547) co-expressed in HEK293 (300 ng Halo and 600 ng CLIP plasmid), lysed in 0.5% LMNG/0.05% CHS, captured by biotinylated anti-HA antibody, co-localized spots analysed by TIRF; also reanalysed for monomeric against oligomeric GPCR
# HA-Halo-MC4R = target: T2, HA-Halo-MC4R (human, UniProt P32245 1-332, CA-Sulfo646 dye on the Halo tag); test: as above
# T2 construct: melanocortin receptor-4 (MC4R), human; N-terminal signal peptide from rat mGluR2 in the construct; also called melanocortin receptor 4; source: HEK293, transfected, in lysate (LMNG-CHS); not shown: HA, N-terminal, kept; Halo, N-terminal, kept
# HA-Halo-GHSR = target: T3, HA-Halo-GHSR (human, UniProt Q92847 1-366, CA-Sulfo646 dye on the Halo tag); test: as above
# T3 construct: growth hormone secretagogue receptor-1a (GHSR), human; N-terminal signal peptide from rat mGluR2 precedes the HA tag in the construct (pRK5 vector); also called ss-HA-Halo-GHSR; growth hormone secretagogue receptor-1a; source: HEK293, transfected, in lysate (LMNG-CHS); not shown: HA, N-terminal, kept; Halo, N-terminal, kept
# GHSR-LgC = target: T4, GHSR-LgC (UniProt Q92847 1-366); test: split reporter (BiFC, NanoBiT); HEK293 cells transfected with 100 ng GHSR-LgC and MRAP2-SmC, 48 h, Nano-Glo substrate, 37°C; normalised to cells with LgC-empty and SmC-empty
# T4 construct: GHSR cloned into the LgBiT-C plasmid (Promega); also called GHSR with LgBiT at the C-terminus; source: HEK293, transfected, in cells; not shown: LgBiT, C-terminal, kept
# T2 sequence (P32245 whole entry): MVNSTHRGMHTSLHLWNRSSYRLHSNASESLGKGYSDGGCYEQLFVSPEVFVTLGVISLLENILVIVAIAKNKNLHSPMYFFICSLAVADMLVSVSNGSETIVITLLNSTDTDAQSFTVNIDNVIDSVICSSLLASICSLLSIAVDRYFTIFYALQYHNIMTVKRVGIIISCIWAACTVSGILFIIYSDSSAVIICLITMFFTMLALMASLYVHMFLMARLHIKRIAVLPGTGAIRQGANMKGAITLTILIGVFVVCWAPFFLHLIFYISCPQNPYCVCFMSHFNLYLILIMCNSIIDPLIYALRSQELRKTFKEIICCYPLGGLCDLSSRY
binder,measurement,setting,value
"FLAG-CLIP-GHSR (receptor, human, UniProt Q92847 1-366, looked up, BC-DY547 dye on the CLIP tag, growth hormone secretagogue receptor-1a (GHSR), human; N-terminal signal peptide from rat mGluR2 precedes the FLAG tag in the construct (pRK5 vector); also called ss-FLAG-CLIP-GHSR; source: HEK293, transfected, in lysate (LMNG-CHS); not shown: CLIP, N-terminal, kept) MWNATPSEEPGFNLTLADLDWDASPGNDSLGDELLQLFPAPLLAGVTATCVALFVVGIAGNLLTMLVVSRFRELRTTTNLYLSSMAFSDLLIFLCMPLDLVRLWQYRPWNFGDLLCKLFQFVSESCTYATVLTITALSVERYFAICFPLRAKVVVTKGRVKLVIFVIWAVAFCSAGPIFVLVGVEHENGTDPWDTNECRPTEFAVRSGLLTVMVWVSSIFFFLPVFCLTVLYSLIGRKLWRRRRGDAVVGASLRDQNHKQTVKMLAVVVFAFILCWLPFHVGRYLFSKSFEPGSLEIAQISQYCNLVSFVLFYLSAAINPILYNIMSKKYRVAVFRLLGFEPFSQRKLSTLKDESSRAWTESSINT",percent of co-localized spots with 2-step bleaching for MRAP2,HA-Halo-MRAP2,22%
same,stoichiometry N,HA-Halo-MRAP2,1 MRAP2 per GHSR
"FLAG-CLIP-MRAP2 (natural protein, human, UniProt Q96G30 1-205, looked up, BC-DY547 dye on the CLIP tag, melanocortin receptor-2 accessory protein-2 (MRAP2), human; N-terminal signal peptide from rat mGluR2 in the construct; source: HEK293, transfected, in lysate (LMNG-CHS); not shown: CLIP, N-terminal, kept) MSAQRLISNRTSQQSASNSDYTWEYEYYEIGPVSFEGLKAHKYSIVIGFWVGLAVFVIFMFFVLTLLTKTGAPHQDNAESSEKRFRMNSFVSDFGRPLEPDKVFSRQGNEESRSLFHCYINEVERLDRAKACHQTTALDSDVQLQEAIRSSGQPEEELNRLMKFDIPNFVNTDQNYFGEDDLLISEPPIVLETKPLSQTSHKDLD",percent of co-localized spots with 2-step bleaching for MRAP2,HA-Halo-MC4R,29%
same,stoichiometry N,HA-Halo-MC4R,1 MRAP2 per MC4R
same,percent of co-localized spots with 2-step bleaching for MRAP2,HA-Halo-GHSR,27%
same,stoichiometry N,HA-Halo-GHSR,1 MRAP2 per GHSR
"MRAP2-SmC (natural protein, UniProt Q96G30 1-205, looked up, MRAP2; printed as MRAP2-SmC in the results and SmC-MRAP2 in the methods; also called SmC-MRAP2; source: HEK293, transfected, in cells) MSAQRLISNRTSQQSASNSDYTWEYEYYEIGPVSFEGLKAHKYSIVIGFWVGLAVFVIFMFFVLTLLTKTGAPHQDNAESSEKRFRMNSFVSDFGRPLEPDKVFSRQGNEESRSLFHCYINEVERLDRAKACHQTTALDSDVQLQEAIRSSGQPEEELNRLMKFDIPNFVNTDQNYFGEDDLLISEPPIVLETKPLSQTSHKDLD",fold luminescence over negative controls,GHSR-LgC,400 fold
